Interaction score data for four molecules are collected here from article PMC10397247.

Common to all, as to assay: two-hybrid library CCmax;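 further: natural log of median RNA to DNA barcode read ratio; higher means stronger binding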
Holding throughout (conditions): mean of both orientations

In one test the target is T1, Core_IIIN-es_KEEK.
T1 chain: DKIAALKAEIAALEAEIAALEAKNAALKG

Another test deals with T2, Core_IIII-es_KEEK.
T2 chain: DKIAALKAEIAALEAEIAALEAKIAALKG

The target of another test is T3, Core_NNNI-es_KKEK.
T3 chain: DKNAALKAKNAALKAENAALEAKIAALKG

Another test addresses T4, Core_INII-es_KKEK.
T4 chain: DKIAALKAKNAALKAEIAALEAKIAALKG

On to DEIAALEAKIAALKAKIAALKAENAALEG [Core_IIIN-es_EKKE], for which the interaction score with Core_IIIN-es_KEEK was found to be 1.73. As for DEIAALEAKIAALKAKIAALKAEIAALEG [Core_IIII-es_EKKE], the interaction score in the test with Core_IIII-es_KEEK was 2.36. As for DENAALEAENAALEAKNAALKAEIAALEG [Core_NNNI-es_EEKE], in the test with Core_NNNI-es_KKEK, the interaction score is 2.2. The molecule DEIAALEAENAALEAKIAALKAEIAALEG [Core_INII-es_EEKE] had an interaction score with Core_INII-es_KKEK of 2.11.
